# Measurements as given in patent US20240117018A1.
# Legend:
# Assay in all cases: cell-based or functional assay
# [1] = target: HIV-1 Env of pseudovirus 0815.v3.c3 (HIV-1)
# [2] = target: HIV-1 Env of pseudovirus 191084 B7-19 (HIV-1)
# [3] = target: HIV-1 Env of pseudovirus 191955_A11 (HIV-1)
# [4] = target: HIV-1 Env of pseudovirus 211-9 (HIV-1)
# [5] = target: HIV-1 Env of pseudovirus 231966.c02 (HIV-1)
# [6] = target: HIV-1 Env of pseudovirus 235-47 (HIV-1)
# [7] = target: HIV-1 Env of pseudovirus 263-8 (HIV-1)
# [8] = target: HIV-1 Env of pseudovirus 3016.v5.c45 (HIV-1)
# [9] = target: HIV-1 Env of pseudovirus 3301.v1.c24 (HIV-1)
# [10] = target: HIV-1 Env of pseudovirus 3817.v2.c59 (HIV-1)
# [11] = target: HIV-1 Env of pseudovirus 620345.c01 (HIV-1)
# [12] = target: HIV-1 Env of pseudovirus 6480.v4.c25 (HIV-1)
# [13] = target: HIV-1 Env of pseudovirus 6540.v4.c1 (HIV-1)
# [14] = target: HIV-1 Env of pseudovirus 6545.v4.c1 (HIV-1)
# [15] = target: HIV-1 Env of pseudovirus 6811.v7.c18 (HIV-1)
# [16] = target: HIV-1 Env of pseudovirus 89-F1_2_25 (HIV-1)
# [17] = target: HIV-1 Env of pseudovirus 9004SS_A3_4 (HIV-1)
# [18] = target: HIV-1 Env of pseudovirus 928-28 (HIV-1)
# [19] = target: HIV-1 Env of pseudovirus A07412M1.vrc12 (HIV-1)
# [20] = target: HIV-1 Env of pseudovirus BJOX010000.06.2 (HIV-1)
# [21] = target: HIV-1 Env of pseudovirus BJOX015000.11.5 (HIV-1)
# [22] = target: HIV-1 Env of pseudovirus BJOX025000.01.1 (HIV-1)
# [23] = target: HIV-1 Env of pseudovirus BJOX028000.10.3 (HIV-1)
# [24] = target: HIV-1 Env of pseudovirus C1080.c03 (HIV-1)
# [25] = target: HIV-1 Env of pseudovirus C4118.c09 (HIV-1)
# [26] = target: HIV-1 Env of pseudovirus P0402_c2_11 (HIV-1)
# [27] = target: HIV-1 Env of pseudovirus P1981_C5_3 (HIV-1)
# [28] = target: HIV-1 Env of pseudovirus R1166.c01 (HIV-1)
# [29] = target: HIV-1 Env of pseudovirus R2184.c04 (HIV-1)
# [30] = target: HIV-1 Env of pseudovirus R3265.c06 (HIV-1)
# [31] = target: HIV-1 Env of pseudovirus T251-18 (HIV-1)
# [32] = target: HIV-1 Env of pseudovirus T255-34 (HIV-1)
# [33] = target: HIV-1 Env of pseudovirus X1193_c1 (HIV-1)
# [34] = target: HIV-1 Env of pseudovirus X1254_c3 (HIV-1)
# [35] = target: HIV-1 Env of pseudovirus X1632_S2_B10 (HIV-1)
# [36] = target: HIV-1 Env of pseudovirus X2131_C1_B5 (HIV-1)
substance,measurement,setting,value
PGT128 (antibody),IC50 (Titer in TZM.bl cells),[1],0.03 µg/mL
same,IC80 (Titer in TZM.bl cells),[1],0.137 µg/mL
same,neutralization IC50,[2],0.022 µg/mL
same,neutralization IC80,[2],0.152 µg/mL
same,neutralization IC50,[3],14.2 µg/mL
same,neutralization IC80,[3],> 50 µg/mL
same,IC50 (Titer in TZM.bl cells),[4],0.062 µg/mL
same,IC80 (Titer in TZM.bl cells),[4],0.215 µg/mL
same,IC50 (Titer in TZM.bl cells),[5],3.2 µg/mL
same,IC80 (Titer in TZM.bl cells),[5],> 50 µg/mL
same,IC50 (Titer in TZM.bl cells),[6],> 50 µg/mL
same,IC80 (Titer in TZM.bl cells),[6],> 50 µg/mL
same,neutralization IC50,[7],0.342 µg/mL
same,neutralization IC80,[7],3.3 µg/mL
same,IC50 (Titer in TZM.bl cells),[8],> 50 µg/mL
same,IC80 (Titer in TZM.bl cells),[8],> 50 µg/mL
same,IC50 (Titer in TZM.bl cells),[9],0.067 µg/mL
same,IC80 (Titer in TZM.bl cells),[9],0.499 µg/mL
same,IC50 (Titer in TZM.bl cells),[10],0.003 µg/mL
same,IC80 (Titer in TZM.bl cells),[10],0.023 µg/mL
same,IC50 (Titer in TZM.bl cells),[11],> 50 µg/mL
same,IC80 (Titer in TZM.bl cells),[11],> 50 µg/mL
same,IC50 (Titer in TZM.bl cells),[12],0.003 µg/mL
same,IC80 (Titer in TZM.bl cells),[12],0.019 µg/mL
same,IC50 (Titer in TZM.bl cells),[13],11.8 µg/mL
same,IC80 (Titer in TZM.bl cells),[13],> 50 µg/mL
same,IC50 (Titer in TZM.bl cells),[14],> 50 µg/mL
same,IC80 (Titer in TZM.bl cells),[14],> 50 µg/mL
same,IC50 (Titer in TZM.bl cells),[15],0.003 µg/mL
same,IC80 (Titer in TZM.bl cells),[15],0.05 µg/mL
same,IC50 (Titer in TZM.bl cells),[16],> 50 µg/mL
same,IC80 (Titer in TZM.bl cells),[16],> 50 µg/mL
same,neutralization IC50,[17],0.002 µg/mL
same,neutralization IC80,[17],0.01 µg/mL
same,neutralization IC50,[18],> 50 µg/mL
same,neutralization IC80,[18],> 50 µg/mL
same,IC50 (Titer in TZM.bl cells),[19],> 50 µg/mL
same,IC80 (Titer in TZM.bl cells),[19],> 50 µg/mL
same,IC50 (Titer in TZM.bl cells),[20],4.82 µg/mL
same,IC80 (Titer in TZM.bl cells),[20],> 50 µg/mL
same,IC50 (Titer in TZM.bl cells),[21],0.001 µg/mL
same,IC80 (Titer in TZM.bl cells),[21],0.011 µg/mL
same,IC50 (Titer in TZM.bl cells),[22],> 50 µg/mL
same,IC80 (Titer in TZM.bl cells),[22],> 50 µg/mL
same,IC50 (Titer in TZM.bl cells),[23],0.024 µg/mL
same,IC80 (Titer in TZM.bl cells),[23],0.07 µg/mL
same,IC50 (Titer in TZM.bl cells),[24],0.283 µg/mL
same,IC80 (Titer in TZM.bl cells),[24],2.06 µg/mL
same,IC50 (Titer in TZM.bl cells),[25],> 50 µg/mL
same,IC80 (Titer in TZM.bl cells),[25],> 50 µg/mL
same,IC50 (Titer in TZM.bl cells),[26],0.007 µg/mL
same,IC80 (Titer in TZM.bl cells),[26],0.02 µg/mL
same,IC50 (Titer in TZM.bl cells),[27],0.019 µg/mL
same,IC80 (Titer in TZM.bl cells),[27],0.088 µg/mL
same,IC50 (Titer in TZM.bl cells),[28],> 50 µg/mL
same,IC80 (Titer in TZM.bl cells),[28],> 50 µg/mL
same,IC50 (Titer in TZM.bl cells),[29],20.1 µg/mL
same,IC80 (Titer in TZM.bl cells),[29],> 50 µg/mL
same,IC50 (Titer in TZM.bl cells),[30],> 50 µg/mL
same,IC80 (Titer in TZM.bl cells),[30],> 50 µg/mL
same,IC50 (Titer in TZM.bl cells),[31],> 50 µg/mL
same,IC80 (Titer in TZM.bl cells),[31],> 50 µg/mL
same,IC50 (Titer in TZM.bl cells),[32],> 50 µg/mL
same,IC80 (Titer in TZM.bl cells),[32],> 50 µg/mL
same,IC50 (Titer in TZM.bl cells),[33],> 50 µg/mL
same,IC80 (Titer in TZM.bl cells),[33],> 50 µg/mL
same,IC50 (Titer in TZM.bl cells),[34],> 50 µg/mL
same,IC80 (Titer in TZM.bl cells),[34],> 50 µg/mL
same,IC50 (Titer in TZM.bl cells),[35],> 50 µg/mL
same,IC80 (Titer in TZM.bl cells),[35],> 50 µg/mL
same,IC50 (Titer in TZM.bl cells),[36],> 50 µg/mL
same,IC80 (Titer in TZM.bl cells),[36],> 50 µg/mL
PGT145 (antibody),IC50 (Titer in TZM.bl cells),[1],> 50 µg/mL
same,IC80 (Titer in TZM.bl cells),[1],> 50 µg/mL
same,neutralization IC50,[2],0.028 µg/mL
same,neutralization IC80,[2],0.345 µg/mL
same,neutralization IC50,[3],< 0.001 µg/mL
same,neutralization IC80,[3],< 0.001 µg/mL
same,IC50 (Titer in TZM.bl cells),[4],0.129 µg/mL
same,IC80 (Titer in TZM.bl cells),[4],0.923 µg/mL
same,IC50 (Titer in TZM.bl cells),[5],< 0.001 µg/mL
same,IC80 (Titer in TZM.bl cells),[5],0.01 µg/mL
same,IC50 (Titer in TZM.bl cells),[6],3.21 µg/mL
same,IC80 (Titer in TZM.bl cells),[6],36 µg/mL
same,neutralization IC50,[7],32.1 µg/mL
same,neutralization IC80,[7],> 50 µg/mL
same,IC50 (Titer in TZM.bl cells),[8],> 50 µg/mL
same,IC80 (Titer in TZM.bl cells),[8],> 50 µg/mL
same,IC50 (Titer in TZM.bl cells),[9],0.219 µg/mL
same,IC80 (Titer in TZM.bl cells),[9],4.22 µg/mL
same,IC50 (Titer in TZM.bl cells),[10],> 50 µg/mL
same,IC80 (Titer in TZM.bl cells),[10],> 50 µg/mL
same,IC50 (Titer in TZM.bl cells),[11],0.241 µg/mL
same,IC80 (Titer in TZM.bl cells),[11],19.7 µg/mL
same,IC50 (Titer in TZM.bl cells),[12],> 50 µg/mL
same,IC80 (Titer in TZM.bl cells),[12],> 50 µg/mL
same,IC50 (Titer in TZM.bl cells),[13],0.08 µg/mL
same,IC80 (Titer in TZM.bl cells),[13],5.09 µg/mL
same,IC50 (Titer in TZM.bl cells),[14],0.114 µg/mL
same,IC80 (Titer in TZM.bl cells),[14],3.1 µg/mL
same,IC50 (Titer in TZM.bl cells),[15],> 50 µg/mL
same,IC80 (Titer in TZM.bl cells),[15],> 50 µg/mL
same,IC50 (Titer in TZM.bl cells),[16],0.8 µg/mL
same,IC80 (Titer in TZM.bl cells),[16],20 µg/mL
same,neutralization IC50,[17],0.018 µg/mL
same,neutralization IC80,[17],0.419 µg/mL
same,neutralization IC50,[18],> 50 µg/mL
same,neutralization IC80,[18],> 50 µg/mL
same,IC50 (Titer in TZM.bl cells),[19],0.002 µg/mL
same,IC80 (Titer in TZM.bl cells),[19],0.023 µg/mL
same,IC50 (Titer in TZM.bl cells),[20],> 50 µg/mL
same,IC80 (Titer in TZM.bl cells),[20],> 50 µg/mL
same,IC50 (Titer in TZM.bl cells),[21],> 50 µg/mL
same,IC80 (Titer in TZM.bl cells),[21],> 50 µg/mL
same,IC50 (Titer in TZM.bl cells),[22],6.63 µg/mL
same,IC80 (Titer in TZM.bl cells),[22],> 50 µg/mL
same,IC50 (Titer in TZM.bl cells),[23],> 50 µg/mL
same,IC80 (Titer in TZM.bl cells),[23],> 50 µg/mL
same,IC50 (Titer in TZM.bl cells),[24],0.024 µg/mL
same,IC80 (Titer in TZM.bl cells),[24],0.146 µg/mL
same,IC50 (Titer in TZM.bl cells),[25],< 0.001 µg/mL
same,IC80 (Titer in TZM.bl cells),[25],0.004 µg/mL
same,IC50 (Titer in TZM.bl cells),[26],0.009 µg/mL
same,IC80 (Titer in TZM.bl cells),[26],0.038 µg/mL
same,IC50 (Titer in TZM.bl cells),[27],5.41 µg/mL
same,IC80 (Titer in TZM.bl cells),[27],> 50 µg/mL
same,IC50 (Titer in TZM.bl cells),[28],2.27 µg/mL
same,IC80 (Titer in TZM.bl cells),[28],17.9 µg/mL
same,IC50 (Titer in TZM.bl cells),[29],0.073 µg/mL
same,IC80 (Titer in TZM.bl cells),[29],0.376 µg/mL
same,IC50 (Titer in TZM.bl cells),[30],0.037 µg/mL
same,IC80 (Titer in TZM.bl cells),[30],0.227 µg/mL
same,IC50 (Titer in TZM.bl cells),[31],0.351 µg/mL
same,IC80 (Titer in TZM.bl cells),[31],1.39 µg/mL
same,IC50 (Titer in TZM.bl cells),[32],> 50 µg/mL
same,IC80 (Titer in TZM.bl cells),[32],> 50 µg/mL
same,IC50 (Titer in TZM.bl cells),[33],0.013 µg/mL
same,IC80 (Titer in TZM.bl cells),[33],0.091 µg/mL
same,IC50 (Titer in TZM.bl cells),[34],5.6 µg/mL
same,IC80 (Titer in TZM.bl cells),[34],> 50 µg/mL
same,IC50 (Titer in TZM.bl cells),[35],0.012 µg/mL
same,IC80 (Titer in TZM.bl cells),[35],2.03 µg/mL
same,IC50 (Titer in TZM.bl cells),[36],0.018 µg/mL
same,IC80 (Titer in TZM.bl cells),[36],0.065 µg/mL
